In patent publication US20060193821, “Aptamers to the human IL-12 cytokine family and their use as autoimmune disease therapeutics” (published 2006) one finds IC50, binding signal and Kd data, which are given here for 35 molecules.

Where a chain is given by its changes, count along the chain named. A value given as a limit tells only on which side of the number the result lay.

In series [1] the target is T1, IL-23 (human, p19/p40 heterodimer) (Homo sapiens, UniProt Q9NPF7;P29460 SEQ:20-189,SEQ:23-328). As to the kind of experiment: cell_activity; TransAM STAT3, PHA blasts. Particulars: tags: R&D Systems. The protocol:
In summary, the cell-based assay was conducted by isolating the peripheral blood mononuclear cells (PBMCs) from whole blood using a Histopaque gradient (Sigma, St. Louis, Mo.). The PBMCs were cultured for 3 to 5 days at 37° C./5% CO₂ in Peripheral Blood Medium (Sigma) which contains PHA, supplemented with IL-2 (100 units/mL) (R&D Systems, Minneapolis, Minn.), to generate PHA Blasts. To test IL-23 aptamers, the PHA Blasts were washed twice with 1×PBS, then serum starved for four hours in RPMI, 0.20% FBS. After serum starvation, approximately 2 million cells were aliquotted into appropriately labeled eppendorf tubes. hIL-23 at a final constant concentration of 3 ng/mL (R&D Systems, Minneapolis, Minn.) was combined with a dilution series of various IL-23 aptamers as described in Example 1, and the cytokine/aptamer mixture was added to the aliquotted cells in a final volume of 100 μl and incubated at 37° C. for 10-12 minutes. The incubation reaction was stopped by adding 1 mL of ice-cold PBS with 1.5 mM Na₃VO₄. Cell lysates were made using the lysis buffer provided by the TransAM™ STAT 3 assay following the manufacturer's instructions. FIG. 20 depicts a flow summary of the protocol used for the cell based assay.
Full length clones from the rRfY selection described in Example 1A, and select minimized rRfY clones that were described in Example 2A. 1, were tested using the TransAM™ STAT3 activation assay. Table 34 summarizes the cell based assay data for IL-23 full length aptamers generated from the rRfY selections described in Example 1A. 1, each compared to the activity of their respective parent (full length) clone.

The target of series [2] is T1, IL-23 (human, p19/p40 heterodimer). As to the kind of experiment: filter; 100 nM IL-23. Particulars: tags: R&D Systems, carrier free.
Series [3] shares this target. The series can be described thus: filter; DPBS Ca Mg. The conditions noted are these: tags: R&D Systems, carrier free. As to the method: The selection progress was monitored using the dot blot sandwich filter binding assay as described in Example 1A. The 5′-³²P-labeled pool RNA was refolded at 90° C. for 3 minutes and cooled to room temperature for 10 minutes. Next, pool RNA (trace concentration) was incubated with h-IL-23 DPBS plus 0.1 mg/mL tRNA for 30 minutes at room temperature and then applied to a nitrocellulose and nylon filter sandwich in a dot blot apparatus (Schleicher and Schuell). The percentage of pool RNA bound to the nitrocellulose was calculated and monitored approximately every 3 rounds with a single point screen (+/−250 nM h-IL-23). Pool KD measurements were measured using a titration of h-IL-23 protein (R&D, Minneapolis, Minn.) and the dot blot apparatus as described above.
The rRmY h-IL-23 selection was enriched for h-IL-23 binding vs. the naïve pool after 4 rounds of selection (data not shown). The selection stringency was increased and the selection was continued for 8 more rounds. […] The rGmH selection was enriched over the naïve pool binding at Round 10. […] FIG. 7 is a binding curve of rRmY and rGmH pool selection binding to h-IL-23. The pools were cloned using TOPO TA cloning kit (Invitrogen, Carlsbad, Calif.) and individual sequences were generated and tested for binding. A single point binding screen was initially performed on all crude rRmY clone transcriptions using a 1:200 dilution, +/−200 nM IL-23, plus 0.1 mg/mL competitor tRNA. […] The 10 point screen was performed using zero to 480 nM IL-23 in 3 fold serial dilutions. Binding curves were generated (KaleidaGraph v. 3.51, Synergy Software) and KDs were estimated by fitting the data to the equation: fraction RNA bound=amplitude[h-IL-23]/KD+[h-IL-23]). […] There was one group of 6 duplicate sequences and 4 pairs of 2 duplicate sequences out of the rRmY clones generated. […] Clones were also tested from 48 crude rGmH clone transcriptions at a 1:200 dilution and 0.1 mg/mL tRNA was used as competitor.

Series [4] shares this target. As to the kind of experiment: filter; -tRNA. The conditions noted are these: tags: R&D Systems, carrier free. As to the method:
These molecules were gel purified and assayed for IL-23 binding using the dot blot assay as described above and compared to each other and to the parent molecule, ARC979. An 8 point IL-23 titration (0 nM to 300 nM, 3 fold serial dilutions) was used in the binding assay.

T1 sequence (Q9NPF7 20-189, chain 1 of 2): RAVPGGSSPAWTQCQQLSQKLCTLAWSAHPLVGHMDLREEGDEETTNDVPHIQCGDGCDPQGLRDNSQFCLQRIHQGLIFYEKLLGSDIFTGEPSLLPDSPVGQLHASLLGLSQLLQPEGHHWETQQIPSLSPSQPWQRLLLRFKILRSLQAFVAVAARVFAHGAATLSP
T1 sequence (P29460 23-328, chain 2 of 2): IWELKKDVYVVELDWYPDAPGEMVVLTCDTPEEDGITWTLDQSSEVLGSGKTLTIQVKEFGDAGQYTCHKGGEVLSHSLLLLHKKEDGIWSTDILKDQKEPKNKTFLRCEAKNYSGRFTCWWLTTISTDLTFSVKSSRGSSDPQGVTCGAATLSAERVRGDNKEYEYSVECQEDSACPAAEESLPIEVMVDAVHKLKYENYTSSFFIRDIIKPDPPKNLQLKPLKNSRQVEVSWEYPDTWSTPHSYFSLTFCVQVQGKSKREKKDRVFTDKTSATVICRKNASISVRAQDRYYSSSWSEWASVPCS

B1: AMX91-B5 (ssRNA)
RNA: GGGAAAAGCGAAUCAUACACAAGACAGUGUAUGAGGAAGAUUACUUCCAUUCCUGAGCGGUUUUCGCUCCGCCAGAGACCAACCGAGAA
modifications: 2'-F C and U, 2'-OH A and G
One may read the IC50 as the concentration that gives 50% inhibition. Read a low IC50 as higher potency. B1 gave an IC50 in series [1] of 1000 nM. This counts as single-digit micromolar.

B2: A10.min1 (ssRNA)
RNA: GGAGAUCAUACACAAGAAGUUUUUUGUGCUCUGAGUACUCAGCGUCCGUAAGGGAUCUCC
modifications: 2'-F C,U
In the case of B2, in series [2], the binding signal was 3.1 +/- ratio. Still for that read-out and setting: next, GGAAUCAUACACAAGAGUGUAUUACCCCCAACCCAGGGGGACCAUUCC (ssRNA, 2'-F C,U) [D9.1]: 3.9 +/- ratio.

B3: rRmY clone SEQ 73 (ssRNA)
RNA: GGGAGAGGAGAGAACGUUCUACAAAUGAGAGCAGGCCGAAAAGGAGUCGCUCGCUGUCGAUCGAUCGAUCGAUG
modifications: 2'-OMe C,U
Broadly, the Kd is the concentration at which binding is half-saturated. As for B3, the Kd in series [3] was 101 nM.

B4: rRmY clone SEQ 71 (ssRNA)
RNA: B3 RNA with A41G
modifications: 2'-OMe C,U
For the molecule B4, the Kd in series [3] turned out to be 124 nM.

B5: rRmY clone SEQ 78 (ssRNA)
RNA: B3 RNA with U26A
modifications: 2'-OMe C,U
For the molecule B5, in series [3], the Kd stood at 124 nM. For GGAUACCCGAGAGGGCUGGCGAAAGCCUCGGCGAGAGCUAUCC (ssRNA, 2'-F C,U) [Type 1.3], in series [2], the binding signal is 0.6 +/- ratio.

B6: C11.1 (ssRNA)
RNA: GGAAGAAUGGUCGGAAUCUCUGGCGCCACGCUGAGUAUAGACGGAAGCUCCGCCAGA
modifications: 2'-F C,U
With B6, the binding signal in series [2] is 3.5 +/- ratio. The same measure, in the same setting: the value for GGAGUCUGAGUACUCAGCGUCCGUAAGGGAUAUGCUCCGCCAGACUCC (ssRNA, 2'-F C,U) [A10.min2] was 6 +/- ratio; that for GGAUCAUACACAAGAAGUGCUUCACGAAAGUGACGUCGAAUAGAUCC (ssRNA, 2'-F C,U) [B10.min3] was 0.8 +/- ratio.

B7: B10.min1 (ssRNA)
RNA: GGAGCGAAUCAUACACAAGAAGUGCUUCAUGCGGCAAACUGCAUGACGUCGAAUAGAUAUGCUCC
modifications: 2'-F C,U
Take B7: in series [2], the binding signal is 33.9 +/- ratio. The same measure, in the same setting: next, GGAGUCUGAGUACUCAGCGUCCCGAGAGGGGAUAUGCUCCGCCAGACUCC (ssRNA, 2'-F C,U) [A10.min4]: 0.7 +/- ratio.

GGCAUACACGAGAGUGCUGUCGAAAGACUCGGCCGAGAGGCUAUGCC (ssRNA, 2'-F C,U) [Type 1.1]: in series [2], the binding signal was 0.9 +/- ratio. Same read-out and setting: the value for GGCAUACGCGAGAGCGCUGGCGAAAGCCUCGGCCGAGAGGCUAUGCC (ssRNA, 2'-F C,U) [Type 1.2] was 0.7 +/- ratio; that for GGAAUCAUACCGAGAGGUAUUACCCCGAAAGGGGACCAUUCC (ssRNA, 2'-F C,U) [Type 2.1] was 5.2 +/- ratio. With GGAGGCGCCACGCUGAGUAUAGACGGAAGCUCCGCCUCC (ssRNA, 2'-F C,U) [C11.2], the binding signal in series [2] was 2.3 +/- ratio.

B8: C10.1 (ssRNA)
RNA: GGACACAAGAGAUGUAUUCAGGCGGUCCGCAUUGAUGUCAGUUAUGCGUAGCUCCGCC
modifications: 2'-F C,U
Turning to B8, in series [2], the binding signal was 4.4 +/- ratio.

B9: ARC1167 (mixed)
RNA: ACAGGCAAGUAAUUGGGGAGUGCGGGCGGGGUGU
modifications: deoxy A,G; 2'-OMe C,U; PS 28-29 [PS linkage 28-29; 2'-OMe C,U at 2,6,10,13,14,21,23,27,32,34; all A,G 2'-deoxy]
Consider B9, for which the Kd in series [4] turned out to be 107 nM.

B10: ARC1169 (mixed)
RNA: B9 RNA
modifications: deoxy A,G; 2'-OMe C,U; PS 33-34 [PS linkage 33-34; 2'-OMe C,U at 2,6,10,13,14,21,23,27,32,34; all A,G 2'-deoxy]
B10 gave a Kd in series [4] of 74 nM.

B11: ARC1168 (mixed)
RNA: B9 RNA
modifications: deoxy A,G; 2'-OMe C,U; PS 32-33 [PS linkage 32-33; 2'-OMe C,U at 2,6,10,13,14,21,23,27,32,34; all A,G 2'-deoxy]
Take B11: the Kd in series [4] was 82 nM. Still for that read-out and setting: next, ACAGGCAAGUAAUUGGGGAGUGCGGGCGGGGUGU (mixed, deoxy A,G; 2'-OMe C,U; PS 7-8) [ARC1152]: 232 nM.

B12: ARC1165 (mixed)
RNA: B9 RNA
modifications: deoxy A,G; 2'-OMe C,U; PS 26-27 [PS between 26-27; 2'-OMe C,U at 2,6,10,13,14,21,23,27,32,34; deoxy A,G at all other positions]
Regarding B12, the affinity in series [4], expressed as Kd, was 55 nM.

B13: ARC1164 (mixed)
RNA: B9 RNA
modifications: deoxy A,G; 2'-OMe C,U; PS 22-23 [PS between 22-23; 2'-OMe C,U at 2,6,10,13,14,21,23,27,32,34; deoxy A,G at all other positions]
In turn, B13 had a Kd in series [4] of 79 nM.

B14: ARC1156 (mixed)
RNA: B9 RNA
modifications: deoxy A,G; 2'-OMe C,U; PS 11-12 [PS between 11-12; 2'-OMe C,U at 2,6,10,13,14,21,23,27,32,34; deoxy A,G at all other positions]
In series [4], B14 gave a Kd of 369 nM.

B15: ARC1159 (mixed)
RNA: B9 RNA
modifications: deoxy A,G; 2'-OMe C,U; PS 14-15 [PS between 14-15; 2'-OMe C,U at 2,6,10,13,14,21,23,27,32,34; deoxy A,G at all other positions]
In series [4], B15 registered a Kd of 77 nM.

B16: ARC1166 (mixed)
RNA: B9 RNA
modifications: deoxy A,G; 2'-OMe C,U; PS 27-28 [PS between 27-28; 2'-OMe C,U at 2,6,10,13,14,21,23,27,32,34; deoxy A,G at all other positions]
In series [4], B16 had a Kd of 132 nM.

B17: ARC1157 (mixed)
RNA: B9 RNA
modifications: deoxy A,G; 2'-OMe C,U; PS 12-13 [PS between 12-13; 2'-OMe C,U at 2,6,10,13,14,21,23,27,32,34; deoxy A,G at all other positions]
Molecule B17 had a Kd in series [4] of 69 nM. Same read-out and setting: next, ACAGGCAAGUAAUUGGGGAGUGCGGGCGGGGUGU (mixed, deoxy A,G; 2'-OMe C,U; PS 8-9) [ARC1153]: 174 nM.

B18: ARC1158 (mixed)
RNA: B9 RNA
modifications: deoxy A,G; 2'-OMe C,U; PS 13-14 [PS between 13-14; 2'-OMe C,U at 2,6,10,13,14,21,23,27,32,34; deoxy A,G at all other positions]
In series [4], B18 yielded a Kd of 192 nM.

B19: ARC1155 (mixed)
RNA: B9 RNA
modifications: deoxy A,G; 2'-OMe C,U; PS 10-11 [PS between 10-11; 2'-OMe C,U at 2,6,10,13,14,21,23,27,32,34; deoxy A,G at all other positions]
B19 came in with a Kd in series [4] of 168 nM. On the same count and under the same terms, the value for ACAGGCAAGUAAUUGGGGAGUGCGGGCGGGGUGU (mixed, deoxy A,G; 2'-OMe C,U; PS 6-7) [ARC1151] was 142 nM.

B20: AMX84-E12 (ssRNA)
RNA: GGGAAAAGCGAAUCAUACACAAGAAGUUUUUGUGCUCUGAGUACUCAGCGUCCGUAAGGGAUAUGCUCCGCCAGAGACCAACCGAGAA
modifications: 2'-F C and U, 2'-OH A and G
Consider B20, for which the IC50 in series [1] was greater than 1000 nM. In the case of GGUUAAAUCUCAUCGUCCCCGUUUGGGGAU (ssRNA, 2'-F C,U) [F11.min1], the binding signal in series [2] was 0.6 +/- ratio.

B21: rRmY clone SEQ 87 (ssRNA)
RNA: AGGAGAGGAGAGAACGUUCUACUAGAAGCAGGCUCGAAUACAAUUCGGAAGUCGCUGUCGAUCGAUCGAUCGAUG
modifications: 2'-OMe C,U
In the case of B21, in series [3], the Kd is 122 nM.

B22: AMX86-G10 (ssRNA)
RNA: GGGAAAAGCGAAUCAUACACAAGAGUCAUGGCUUACAAUUGAAACAAGAGCUCGCGUGACACAUGCUCCGCCAGAGACCAACCGAGAA
modifications: 2'-F C and U, 2'-OH A and G
The molecule B22 yielded an IC50 in series [1] of roughly 2000 nM.
